± gives the uncertainty stated by the source.
Experiment: self-splicing fitness, log relative to wild type (ln ratio); higher = more splicing; Tetrahymena group I intron in knt gene, E. coli kanamycin selection, DiMSum; sequences stand for … in CUCUCU…GGAGGGAAAAGUUAUCAGGCAUGCACCUGGUAGCUAGUCUUUAAACCAAUAGAUUGCAUCGGUUUAAAAGGCAAGACCGUCAAAUUGCGGGAAAGGGGUCAACAGCCGUUCAGUACCAAGUCUCAGGGGAAACUUUGAGAUGGCCUUGCAAAGGGUAUGGUAAUAAGCUGACGGACAUGGUCCUAACCACGCAGCCAAGUCCUAAGUCAACAGAUCUUCUGUUGAUAUGGAUGCAGUUCACAGACUAAAUGUCGGUCGGGGAAGAUGUAUUCUUCUCAUAAGAUAUAGUCGGACCUCUCCUUAAUGGGAGCUAGCGGAUGAAGUGAUGCAACACUGGAGCCGCUGGGAACUAAUUUGUAUGCGAAAGUAUAUUGAUUAGUUUUGGAGUACUCGUGGUCG
Summary of the method: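 Six replicate transformations of E. coli BL21(DE3) with a pET-22b(+) library were grown overnight at 37°C or 30°C. The library randomised all eight P1ex-region intron nucleotides, the intron lying in the knt kanamycin-resistance gene, and plates were LB agar with or without 25 μg/mL kanamycin plus 100 μg/mL carbenicillin, 50 μM IPTG and 0.2% rhamnose. Pooled colonies were amplicon-sequenced on an Illumina HiSeq 2500, and fitness is the DiMSum error-weighted combination of wild-type-normalised replicate fold changes, kanamycin versus none.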

| Sequence | self-splicing fitness (ln) (30 °C) | self-splicing fitness (ln) (37 °C) |
| --- | --- | --- |
| GUCCAGCAAUAUUACGUCUU | -0.409 ± 0.081 | 0.275 ± 0.092 |
| GUCCAGCAAUAUUACGUGAA | 0.0486 ± 0.079 | 0.617 ± 0.098 |
| GUCCAGCAAUAUUACGUGCA | -1.55 ± 0.09 | -0.54 ± 0.1 |
| GUCCAGCAAUAUUACGUGCU | -4.08 ± 0.46 | 0.0205 ± 0.18 |
| GUCCAGCAAUAUUACGUGUU | -1.52 ± 0.055 | -0.617 ± 0.068 |
| GUCCAGCAAUAUUACGUUGA | -0.801 ± 0.057 | -0.239 ± 0.071 |
| GUCCAGCAAUAUUACGUUGG | -3.27 ± 0.15 | -2.13 ± 0.17 |
| GUCGAGCAAUAUUACGACCU | – | -1.74 ± 0.26 |
| GUCGAGCAAUAUUACGACGA | -3.05 ± 0.35 | -1.28 ± 0.21 |
| GUCGAGCAAUAUUACGACUA | -1.67 ± 0.23 | -1.28 ± 0.18 |
| GUCGAGCAAUAUUACGAUGU | -0.956 ± 0.059 | -0.601 ± 0.084 |
| GUCGAGCAAUAUUACGCACU | -1.47 ± 0.14 | -0.953 ± 0.18 |
| GUCGAGCAAUAUUACGCAUG | -3.47 ± 0.25 | -2.43 ± 0.22 |
| GUCGAGCAAUAUUACGCAUU | -2.45 ± 0.27 | -0.95 ± 0.25 |
| GUCGAGCAAUAUUACGCCAU | -2.99 ± 0.28 | -2.4 ± 0.24 |
| GUCGAGCAAUAUUACGCCUU | -1.46 ± 0.28 | -1.77 ± 0.41 |
| GUCGAGCAAUAUUACGCGUG | -1.25 ± 0.16 | -1.24 ± 0.21 |
| GUCGAGCAAUAUUACGCGUU | -1.64 ± 0.11 | -0.556 ± 0.14 |
| GUCGAGCAAUAUUACGCUGA | – | -2.01 ± 0.43 |
| GUCGAGCAAUAUUACGGACG | -1.43 ± 0.18 | -0.738 ± 0.21 |
| GUCGAGCAAUAUUACGGCCC | – | -1.43 ± 0.4 |
| GUCGAGCAAUAUUACGGCGC | -0.811 ± 0.25 | -0.631 ± 0.44 |
| GUCGAGCAAUAUUACGGCGU | -0.43 ± 0.19 | -0.689 ± 0.14 |
| GUCGAGCAAUAUUACGGUAC | -1.98 ± 0.11 | -1.91 ± 0.16 |
| GUCGAGCAAUAUUACGGUCG | -2.44 ± 0.22 | -1.94 ± 0.28 |

| Sequence | self-splicing fitness (ln) (30 °C) | self-splicing fitness (ln) (37 °C) |
| --- | --- | --- |
| GUCGAGCAAUAUUACGGUCU | -3.35 ± 0.28 | -1.12 ± 0.18 |
| GUCGAGCAAUAUUACGUGUA | -3.26 ± 0.2 | -2.12 ± 0.19 |
| GUCUAGCAAUAUUACGAACA | -1.13 ± 0.13 | -0.831 ± 0.11 |
| GUCUAGCAAUAUUACGAACC | -1.25 ± 0.19 | -0.145 ± 0.28 |
| GUCUAGCAAUAUUACGACAU | -0.643 ± 0.014 | -0.146 ± 0.032 |
| GUCUAGCAAUAUUACGAGUG | -1.99 ± 0.1 | -1.05 ± 0.1 |
| GUCUAGCAAUAUUACGCGCG | -1.36 ± 0.15 | -0.687 ± 0.14 |
| GUCUAGCAAUAUUACGCGUG | -0.894 ± 0.058 | -0.777 ± 0.072 |
| GUCUAGCAAUAUUACGCUAG | -2.97 ± 0.32 | -2.31 ± 0.31 |
| GUCUAGCAAUAUUACGCUUA | -0.87 ± 0.077 | 0.645 ± 0.097 |
| GUCUAGCAAUAUUACGGCGA | -0.49 ± 0.22 | -0.132 ± 0.21 |
| GUCUAGCAAUAUUACGGCGG | -2.66 ± 0.42 | -2.32 ± 0.4 |
| GUCUAGCAAUAUUACGGCUG | -2.04 ± 0.18 | -1.91 ± 0.21 |
| GUCUAGCAAUAUUACGGGCG | -1.66 ± 0.28 | -0.341 ± 0.17 |
| GUCUAGCAAUAUUACGGGCU | -3.5 ± 0.27 | -3.73 ± 0.3 |
| GUCUAGCAAUAUUACGGGUA | -1.28 ± 0.11 | -0.285 ± 0.09 |
| GUCUAGCAAUAUUACGGUAU | -0.441 ± 0.1 | 0.315 ± 0.11 |
| GUCUAGCAAUAUUACGUAAA | -0.871 ± 0.085 | 0.379 ± 0.092 |
| GUCUAGCAAUAUUACGUCCA | -1.07 ± 0.31 | -0.455 ± 0.21 |
| GUCUAGCAAUAUUACGUCCC | 0.0985 ± 0.14 | -0.0539 ± 0.14 |
| GUCUAGCAAUAUUACGUCUA | -1.33 ± 0.23 | -1.22 ± 0.16 |
| GUCUAGCAAUAUUACGUGUA | -0.862 ± 0.084 | -0.516 ± 0.086 |
| GUGAAGCAAUAUUACGAAGA | -0.478 ± 0.086 | -1.11 ± 0.14 |
| GUGAAGCAAUAUUACGAAUG | -0.846 ± 0.075 | -0.708 ± 0.11 |
| GUGAAGCAAUAUUACGAGAU | -2.25 ± 0.16 | -0.51 ± 0.19 |

| Sequence | self-splicing fitness (ln) (30 °C) | self-splicing fitness (ln) (37 °C) |
| --- | --- | --- |
| GUGAAGCAAUAUUACGAUGA | -0.639 ± 0.075 | 0.631 ± 0.093 |
| GUGAAGCAAUAUUACGCAAU | -0.705 ± 0.088 | -0.623 ± 0.12 |
| GUGAAGCAAUAUUACGCGAG | -0.336 ± 0.057 | -0.0325 ± 0.07 |
| GUGAAGCAAUAUUACGCGGC | -2.03 ± 0.33 | -1.24 ± 0.4 |
| GUGAAGCAAUAUUACGCGGG | -2.8 ± 0.19 | -1.55 ± 0.2 |
| GUGAAGCAAUAUUACGCUGC | -3.05 ± 0.21 | -2.19 ± 0.21 |
| GUGAAGCAAUAUUACGCUUU | -4.83 ± 0.36 | -2.84 ± 0.43 |
| GUGAAGCAAUAUUACGGAGU | -1.3 ± 0.072 | -0.63 ± 0.091 |
| GUGAAGCAAUAUUACGGCGG | -1.24 ± 0.13 | -1.26 ± 0.14 |
| GUGAAGCAAUAUUACGGUCU | 0.172 ± 0.098 | 0.824 ± 0.096 |
| GUGAAGCAAUAUUACGGUUC | -2.13 ± 0.12 | -1.19 ± 0.14 |
| GUGAAGCAAUAUUACGUACA | -0.778 ± 0.082 | 0.51 ± 0.12 |
| GUGAAGCAAUAUUACGUACU | -1.14 ± 0.055 | -0.0726 ± 0.07 |
| GUGAAGCAAUAUUACGUAGU | -2.19 ± 0.064 | -1.1 ± 0.08 |
| GUGAAGCAAUAUUACGUGAG | -1.26 ± 0.076 | -0.555 ± 0.097 |
| GUGAAGCAAUAUUACGUUUU | -4.1 ± 0.14 | -3.88 ± 0.22 |
| GUGCAGCAAUAUUACGAAAA | -2.34 ± 0.19 | -2.49 ± 0.22 |
| GUGCAGCAAUAUUACGAACG | -2.4 ± 0.2 | -0.213 ± 0.14 |
| GUGCAGCAAUAUUACGACGA | -0.272 ± 0.15 | 0.701 ± 0.14 |
| GUGCAGCAAUAUUACGAUGA | -0.903 ± 0.14 | -0.772 ± 0.14 |
| GUGCAGCAAUAUUACGCAAA | -0.928 ± 0.1 | -0.119 ± 0.13 |
| GUGCAGCAAUAUUACGCACU | -3.41 ± 0.28 | -2.3 ± 0.37 |
| GUGCAGCAAUAUUACGCCAU | -2.23 ± 0.16 | -2.62 ± 0.23 |
| GUGCAGCAAUAUUACGCCGA | -1.56 ± 0.13 | -0.832 ± 0.12 |
| GUGCAGCAAUAUUACGCCUG | -2.95 ± 0.2 | -2.49 ± 0.26 |

| Sequence | self-splicing fitness (ln) (30 °C) | self-splicing fitness (ln) (37 °C) |
| --- | --- | --- |
| GUGCAGCAAUAUUACGCGCA | -2.62 ± 0.27 | – |
| GUGCAGCAAUAUUACGCGGA | -2.35 ± 0.27 | -1.08 ± 0.12 |
| GUGCAGCAAUAUUACGCUAG | -3.71 ± 0.31 | -2.47 ± 0.32 |
| GUGCAGCAAUAUUACGCUCU | -1.77 ± 0.14 | -0.404 ± 0.15 |
| GUGCAGCAAUAUUACGCUGA | -2.38 ± 0.17 | -1.6 ± 0.16 |
| GUGCAGCAAUAUUACGGAUC | 0.0925 ± 0.13 | 0.198 ± 0.14 |
| GUGCAGCAAUAUUACGGCCG | -1.8 ± 0.26 | -1.12 ± 0.3 |
| GUGCAGCAAUAUUACGGCUU | -0.306 ± 0.052 | -0.128 ± 0.072 |
| GUGCAGCAAUAUUACGGGUA | -2.35 ± 0.1 | -2.12 ± 0.12 |
| GUGCAGCAAUAUUACGGGUG | -3.36 ± 0.12 | -1.87 ± 0.12 |
| GUGCAGCAAUAUUACGUACA | – | -2.03 ± 0.34 |
| GUGCAGCAAUAUUACGUAUA | -1.42 ± 0.073 | 0.0392 ± 0.069 |
| GUGCAGCAAUAUUACGUAUC | -1.69 ± 0.13 | -1.79 ± 0.13 |
| GUGCAGCAAUAUUACGUUAG | -2.62 ± 0.14 | -0.353 ± 0.11 |
| GUGCAGCAAUAUUACGUUGC | -3.82 ± 0.31 | -2.93 ± 0.31 |
| GUGCAGCAAUAUUACGUUUC | -3.02 ± 0.11 | -0.289 ± 0.11 |
| GUGGAGCAAUAUUACGAAUG | -3.75 ± 0.4 | -1.77 ± 0.37 |
| GUGGAGCAAUAUUACGAGAG | -3.58 ± 0.22 | -2.7 ± 0.38 |
| GUGGAGCAAUAUUACGAGCU | -3.17 ± 0.26 | -2.01 ± 0.28 |
| GUGGAGCAAUAUUACGAUAU | -1.83 ± 0.17 | -0.975 ± 0.15 |
| GUGGAGCAAUAUUACGAUCG | – | -3.31 ± 0.47 |
| GUGGAGCAAUAUUACGAUUA | -2.1 ± 0.48 | -1.68 ± 0.34 |

— the supplement of paper PMC7877785
